One data set concerns the target PDGF-AB (Homo sapiens) (UniProt P04085+P01127). The conditions noted are these: [PEG40K]-NH2-dCdAdGdGdCfUdAfCmG-PEG-dCdGTdAmGdAmGdCdAfUfCmA-PEG-TdGdATfCfCfUmG-3T (f 2'-F, m 2'-OMe, d deoxy; PEG spacers).
A further data set concerns the target PDGF-BB (Homo sapiens) (UniProt P01127). Particulars: [PEG40K]-NH2-dCdAdGdGdCfUdAfCmG-PEG-dCdGTdAmGdAmGdCdAfUfCmA-PEG-TdGdATfCfCfUmG-3T (f 2'-F, m 2'-OMe, d deoxy; PEG spacers).

Sequence of PDGF-BB (Homo sapiens) (P01127 82-190): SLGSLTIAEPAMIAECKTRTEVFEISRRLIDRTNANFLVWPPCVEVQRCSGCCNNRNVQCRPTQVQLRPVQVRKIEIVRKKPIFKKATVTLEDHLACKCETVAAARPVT
Sequence of PDGF-AB (Homo sapiens) (P01127 82-190, chain 2 of 2, other chains not shown): as the sequence (P01127 82-190) above

What is called Kd is the concentration at which binding is half-saturated. Higher therefore signals a looser complex. Regarding CAGGCUACGCGTAGAGCAUCATGATCCUG [ARC127], the dissociation constant (Kd) in the data set with PDGF-AB (Homo sapiens) and with PDGF-BB (Homo sapiens) was 0.1 nM in each case.

(Values after US20040253243.)
